Legend:
[1] = target: T1, recombinant soluble FcγRIIb (human, UniProt P31994 43-217); assay: BLI (Octet); anti-TNP IgG captured on TNP-BSA-biotin, rsFcγR in solution; global 1:1 Langmuir fit
T1 construct: extracellular domain; also called rsFcγRIIb
T1 sequence (looked up): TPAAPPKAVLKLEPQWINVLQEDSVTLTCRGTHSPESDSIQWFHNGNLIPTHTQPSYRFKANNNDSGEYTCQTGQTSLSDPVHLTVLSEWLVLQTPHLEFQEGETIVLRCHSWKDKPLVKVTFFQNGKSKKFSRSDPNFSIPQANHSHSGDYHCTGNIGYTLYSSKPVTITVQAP
Procedure: Affinity measurements of IgG:FcR interaction using Bio-Layer Interferometry (OCTET) TNP-BSA was reacted with the EZ-Link™ biotinylation reagent (ThermoFisher Scientific) according to the manufacturer's instructions. The resulting TNP-BSA-biotin (5 μg/ml, 30 sec) was captured to ˜0.8 nm on streptavidin BLI probes using an Octet Red96 (ForteBio; Molecular Devices LLC, San Jose, CA, United States of America) then loaded with anti-TNP IgG (4 μg/ml, 75 sec). A baseline was established (60 sec) followed by the association and dissociation (90s) of a concentration series (15 nM to 20 μM) of rsFcγRIIa-R131 or rsFcγRIIb. Regeneration after each initial reaction TNP-BSA-biotin capture and the subsequent binding cycles used 10 mM HCl.

[2] = target: T2, human FcγRI expressed on the cell surface (human, UniProt P12314 16-374); assay: flow cytometry; monomeric IgG on IIA1.6 cells expressing FcγRI
T2 construct: whole, on cells; Co-expressed with the FcR common γ chain
T2 sequence (P12314 16-374): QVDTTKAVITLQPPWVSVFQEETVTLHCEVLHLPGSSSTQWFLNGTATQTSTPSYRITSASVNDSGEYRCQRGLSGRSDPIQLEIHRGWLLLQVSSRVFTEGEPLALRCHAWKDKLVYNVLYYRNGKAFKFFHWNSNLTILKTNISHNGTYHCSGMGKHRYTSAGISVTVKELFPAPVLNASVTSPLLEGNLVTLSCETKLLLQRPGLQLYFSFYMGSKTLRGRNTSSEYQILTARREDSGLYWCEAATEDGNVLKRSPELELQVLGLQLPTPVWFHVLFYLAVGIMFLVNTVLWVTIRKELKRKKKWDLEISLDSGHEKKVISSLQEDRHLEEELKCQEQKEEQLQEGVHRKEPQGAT
Procedure: (§1) Antibody FcγR binding was measured using either immune complexes or monomeric IgG. Immune complexes were generated by incubating the anti-TNP antibodies (parental or mutant anti-TNP IgG) with TNP-BSA at a 2:1 ratio (40 μg/ml:20 μg/ml) for 30 minutes at 37° C. then 10 minutes at 4° C. […] The cells were washed twice, resuspended in […] PBS/0.5% BSA and 10,000 viable cells analysed in at least three experiments. Monomer IgG binding (MFI) were fitted to a single binding site model to determine binding affinity (KA). Similarly immune complex binding is reported as apparent affinity (K app).

[3] = target: T3, human FcγRIIIa-V158 expressed on the cell surface (human, UniProt P08637 17-254); assay: flow cytometry; immune complexes with TNP-BSA on IIA1.6 cells expressing the FcγR
T3 construct: whole, on cells; Co-expressed with the FcR common γ chain (FcRγ-EGFP)
T3 sequence (P08637 17-254 F176V): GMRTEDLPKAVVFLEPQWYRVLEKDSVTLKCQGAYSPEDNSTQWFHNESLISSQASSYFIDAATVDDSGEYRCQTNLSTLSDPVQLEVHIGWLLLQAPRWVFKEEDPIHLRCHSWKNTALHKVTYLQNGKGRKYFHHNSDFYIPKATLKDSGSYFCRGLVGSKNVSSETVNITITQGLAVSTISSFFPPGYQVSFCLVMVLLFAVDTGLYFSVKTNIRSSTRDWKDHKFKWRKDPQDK
Procedure: as §1
(§2) The interaction of the mutant IgGs with the human FcγRs on the cell surface was evaluated by flow cytometry and compared to the binding of parental IgG2 or IgG4 as well as to IgG1, the “universal” ligand for all human FcγR. Binding to the low affinity human FcγR (FcγRIIb, FcγRIIa, and FcγRIII) was performed using immune complexes (FIG. 1A-E). Binding to the high affinity FcγRI was determined using monomeric IgG (FIG. 1F). […] Uncomplexed, monomeric IgG1 and IgG4, but not IgG2, bound to the high affinity FcγRI.

[4] = target: T4, human FcγRIIIa-F158 expressed on the cell surface (human, UniProt P08637 17-254); assay: as above
T4 construct: whole, on cells; Co-expressed with the FcR common γ chain (FcRγ-EGFP)
T4 sequence (P08637 17-254): as the sequence (P08637 17-254 F176V) above, with V160F counted along it
Procedure: as §1, §2

[5] = target: T5, human FcγRIIa-R131 expressed on the cell surface (human, UniProt P12318 34-317); assay: as above
T5 construct: whole, on cells
T5 sequence (looked up): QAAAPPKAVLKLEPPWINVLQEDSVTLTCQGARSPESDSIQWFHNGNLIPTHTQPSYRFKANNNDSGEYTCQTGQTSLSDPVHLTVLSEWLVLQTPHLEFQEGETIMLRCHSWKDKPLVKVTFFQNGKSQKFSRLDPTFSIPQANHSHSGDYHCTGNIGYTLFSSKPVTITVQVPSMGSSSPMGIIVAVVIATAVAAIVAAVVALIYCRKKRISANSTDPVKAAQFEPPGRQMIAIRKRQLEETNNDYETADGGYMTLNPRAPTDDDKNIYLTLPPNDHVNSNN
Procedure: as §1, §2

[6] = target: T6, human FcγRIIa-H131 expressed on the cell surface (human, UniProt P12318 34-317); assay: as above
T6 construct: whole, on cells
T6 sequence (looked up): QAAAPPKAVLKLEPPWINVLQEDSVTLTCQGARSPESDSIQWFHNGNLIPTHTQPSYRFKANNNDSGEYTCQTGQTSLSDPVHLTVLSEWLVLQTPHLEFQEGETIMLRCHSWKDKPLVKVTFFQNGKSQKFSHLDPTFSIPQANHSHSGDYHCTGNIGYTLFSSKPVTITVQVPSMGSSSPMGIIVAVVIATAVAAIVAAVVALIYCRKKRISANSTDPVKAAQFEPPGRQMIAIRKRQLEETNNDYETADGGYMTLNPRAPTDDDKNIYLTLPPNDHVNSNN
Procedure: as §1, §2

B1: chimeric anti-TNP human IgG2 (IgG2-WT) (antibody)
heavy: EVQLQESGPSLVKPSQTLSLTCSVTGDSITSGYWNWIRQVPGNKLEYMGFINYSGNTYYNPSLRSRISITRDTSKNQYFLHLNSVTTEDTATYYCARANWDVFAYWGQGTLVTVSAASTKGPSVFPLAPCSRSTSESTAALGCLVKDYFPEPVTVSWNSGALTSGVHTFPAVLQSSGLYSLSSVVTVPSSNFGTQTYTCNVDHKPSNTKVDKTVERKCCVECPPCPAPPVAGPSVFLFPPKPKDTLMISRTPEVTCVVVDVSHEDPEVQFNWYVDGVEVHNAKTKPREEQFNSTFRVVSVLTVVHQDWLNGKEYKCKVSNKGLPAPIEKTISKTKGQPREPQVYTLPPSREEMTKNQVSLTCLVKGFYPSDIAVEWESNGQPENNYKTTPPMLDSDGSFFLYSKLTVDKSRWQQGNVFSCSVMHEALHNHYTQKSLSLSLGK
light: not shown
notes: also called parental IgG2; wild type IgG2
For B1, the Ka [1] was 59000 M⁻¹, the binding result [2] was “no binding” and the binding result [3] was “no binding”. B1: no binding [4]; no binding [5]; binds [6].

From US20240018269A1 (MACFARLANE BURNET INSTITUTE FOR MEDICAL RESEARCH AND PUBLIC …, published 2024)
